Laboratory results reported in US20240175042.

How the values were obtained:
[1] = target: EIN2-CEND (co-expressed in Arabidopsis mesophyll protoplasts) (UniProt Q9S814)
[2] = target: His6-EBF2 (purified) (UniProt Q708Y0)
His6-EBF2 (purified), sequence (Q708Y0 whole entry): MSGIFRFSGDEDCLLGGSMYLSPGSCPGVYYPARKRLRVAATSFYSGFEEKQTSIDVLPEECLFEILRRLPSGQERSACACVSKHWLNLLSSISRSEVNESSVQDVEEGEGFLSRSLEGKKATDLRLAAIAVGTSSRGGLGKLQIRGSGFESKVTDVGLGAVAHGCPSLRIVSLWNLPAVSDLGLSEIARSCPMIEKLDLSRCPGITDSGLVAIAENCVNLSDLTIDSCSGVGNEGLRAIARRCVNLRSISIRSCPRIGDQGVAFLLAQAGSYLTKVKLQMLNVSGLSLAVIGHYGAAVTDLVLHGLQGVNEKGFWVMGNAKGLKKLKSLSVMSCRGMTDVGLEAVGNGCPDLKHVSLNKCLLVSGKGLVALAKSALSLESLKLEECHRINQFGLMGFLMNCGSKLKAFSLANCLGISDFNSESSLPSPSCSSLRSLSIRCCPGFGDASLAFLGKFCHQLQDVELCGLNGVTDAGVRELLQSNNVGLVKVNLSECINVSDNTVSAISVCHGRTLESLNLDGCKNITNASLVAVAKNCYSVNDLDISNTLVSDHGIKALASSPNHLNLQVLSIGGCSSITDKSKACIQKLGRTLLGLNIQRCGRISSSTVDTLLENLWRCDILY

EIN2-CEND (co-expressed in Arabidopsis mesophyll protoplasts), sequence (Q9S814 462-1294): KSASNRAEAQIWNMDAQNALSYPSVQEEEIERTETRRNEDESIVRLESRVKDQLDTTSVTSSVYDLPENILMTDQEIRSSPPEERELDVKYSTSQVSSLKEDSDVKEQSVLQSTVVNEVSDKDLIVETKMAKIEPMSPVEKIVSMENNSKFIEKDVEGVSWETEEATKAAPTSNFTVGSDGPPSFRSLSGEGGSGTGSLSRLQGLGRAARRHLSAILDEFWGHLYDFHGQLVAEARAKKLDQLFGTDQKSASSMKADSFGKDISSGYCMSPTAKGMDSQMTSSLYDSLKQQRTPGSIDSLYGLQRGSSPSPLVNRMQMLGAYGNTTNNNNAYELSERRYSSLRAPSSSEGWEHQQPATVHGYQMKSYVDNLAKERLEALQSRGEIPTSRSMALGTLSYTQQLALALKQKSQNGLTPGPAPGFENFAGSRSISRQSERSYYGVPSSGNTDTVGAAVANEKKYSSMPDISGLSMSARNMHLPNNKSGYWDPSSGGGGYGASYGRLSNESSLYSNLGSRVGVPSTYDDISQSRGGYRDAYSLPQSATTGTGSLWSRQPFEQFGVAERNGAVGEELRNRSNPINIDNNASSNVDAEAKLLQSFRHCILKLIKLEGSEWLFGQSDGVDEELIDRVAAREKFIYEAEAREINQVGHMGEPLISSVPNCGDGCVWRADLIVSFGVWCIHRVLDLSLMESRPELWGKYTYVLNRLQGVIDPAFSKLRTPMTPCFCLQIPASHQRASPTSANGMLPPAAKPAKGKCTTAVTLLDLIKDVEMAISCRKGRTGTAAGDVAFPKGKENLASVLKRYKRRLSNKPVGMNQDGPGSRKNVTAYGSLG
CTR1-KD (wild-type CTR1 kinase domain lacking the N-terminal domain, expressed in Arabidopsis mesophyll protoplasts), sequence (chain, as listed by the source): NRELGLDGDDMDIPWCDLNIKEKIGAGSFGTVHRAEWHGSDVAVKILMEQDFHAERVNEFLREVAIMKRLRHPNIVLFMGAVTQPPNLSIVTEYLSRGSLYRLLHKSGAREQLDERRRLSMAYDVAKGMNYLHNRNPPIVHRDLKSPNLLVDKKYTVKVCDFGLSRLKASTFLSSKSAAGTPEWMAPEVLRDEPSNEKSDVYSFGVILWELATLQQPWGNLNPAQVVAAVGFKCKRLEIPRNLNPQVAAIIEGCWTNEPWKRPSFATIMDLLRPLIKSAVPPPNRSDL
CTR1-KD^AAA (CTR1 kinase domain with T704A/S707A/S710A, expressed in Arabidopsis mesophyll protoplasts), sequence (chain, as listed by the source T704A S707A S710A): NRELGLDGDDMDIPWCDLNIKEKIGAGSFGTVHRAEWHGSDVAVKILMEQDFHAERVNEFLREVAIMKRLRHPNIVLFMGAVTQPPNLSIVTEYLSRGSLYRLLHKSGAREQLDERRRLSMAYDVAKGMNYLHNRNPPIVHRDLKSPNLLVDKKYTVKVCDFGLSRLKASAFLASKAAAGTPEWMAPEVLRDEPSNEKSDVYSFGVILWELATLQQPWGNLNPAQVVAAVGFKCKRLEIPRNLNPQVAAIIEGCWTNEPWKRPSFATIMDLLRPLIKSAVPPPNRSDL
His6-CTR1-KD^WT (purified CTR1 kinase domain, residues 531-821), sequence (chain, as listed by the source): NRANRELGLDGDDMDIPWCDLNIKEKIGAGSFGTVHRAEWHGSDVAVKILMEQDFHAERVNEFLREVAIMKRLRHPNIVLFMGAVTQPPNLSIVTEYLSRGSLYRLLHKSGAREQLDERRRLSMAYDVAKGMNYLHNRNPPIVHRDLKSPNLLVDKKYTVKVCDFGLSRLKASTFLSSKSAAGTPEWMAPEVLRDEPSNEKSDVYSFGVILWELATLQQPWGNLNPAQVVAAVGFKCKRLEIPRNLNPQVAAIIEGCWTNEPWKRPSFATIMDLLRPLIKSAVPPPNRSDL

| Substance | Phos-tag gel band shift of EIN2-CEND on co-expression in Arabidopsis mesophyll protoplasts [1] | in vitro kinase assay ([γ-32P]ATP incorporation, autoradiography) [2] |
| --- | --- | --- |
| CTR1-KD^AAA (CTR1 kinase domain with T704A/S707A/S710A, expressed in Arabidopsis mesophyll protoplasts) | Wild-type CTR1-KD, but not CTR1-KD^AAA, phosphorylated EIN2-CEND when co-expressed in Arabidopsis mesophyll protoplasts |  |
| CTR1-KD (wild-type CTR1 kinase domain lacking the N-terminal domain, expressed in Arabidopsis mesophyll protoplasts) | Wild-type CTR1-KD, but not CTR1-KD^AAA, phosphorylated EIN2-CEND when co-expressed in Arabidopsis mesophyll protoplasts |  |
| His6-CTR1-KD^WT (purified CTR1 kinase domain, residues 531-821) |  | in vitro kinase assay demonstrated that CTR1 does not phosphorylate EBF2 |
